Source: patent publication US20030157533A1, “Nucleic acid labeling by Thermoanaerobacter thermohydrosulfuricus DNA polymerase I variants” (priority 2001, published 2003)

Columns and labels:
Format in all cases: biochemical
[1] = system: Globin mRNA template annealed to P-33 labeled primer; assay: Single nucleotide incorporation of Cy3.5-dCTP or dCTP on RNA template (reverse transcriptase reaction, FIG. 7); conditions: lower concentrations (0.2 uM or lower) of dye-CTP
Method: The experiment shown in FIG. 7 investigates the relative efficiencies of incorporation of dye-CTP (Cy3.5-dCTP) and dCTP. Three enzyme preparations ΔTts, ΔTts F412Y, ΔTtsF412YD426R were analyzed in this experiment.
(§1) Optimized 1×buffer compositions for Reverse Transcriptase (RNA dependent DNA Polymerase) and DNA Polymerase (DNA dependent DNA polymerase) reactions for all variants of Tts Pol I are as follows. Tris, pH 8.0 (50 mM), KCl (40 mM), MgCl2 (3 mM), DTT (1 mM), DNA or RNA template (as needed), primer (5 to 50 femto mols), enzyme 0.5 to 1 units, dNTP or dNTP analog (varying concentrations as needed). In standard synthesis reactions, when full-length synthesis is monitored, 50 uM of all 4 dNTPs are included. Typical reaction volume is 10 ul. Reaction temperature was kept between 37-60 C. depending on the experimental needs. Reaction time was limited to 10 minutes for single nucleotide incorporation studies. Time was varied as needed for the purpose of the experiments, sometimes up to 1 hour if longer extensions are monitored.
The experiment shown in FIG. 7 investigates the relative efficiencies of incorporation of dye-CTP (Cy3.5-dCTP) and dCTP. Three enzyme preparations ΔTts, ΔTtsFY, ΔTtsF412YD426R were analyzed in this experiment.
In FIG. 7, Globin mRNA served as the template. A 5′ P-33 labeled primer (DNA 25-mer) was annealed to the template. Reactions were performed with varying concentrations of either Cy3.5-dCTP or dCTP alone. Inclusion of only one dNTP allowed incorporation of the next correct nucleotide alone. The sequence of the template-primer that allowed for the examination of single nucleotide “C” incorporation is shown below.
Lanes 1,2,3 and 4 contain 20, 2, 0.2, and 0.02 uM of dNTP or dye-dNTP. Lane with no label has no enzyme, to show the integrity of the starting P-33 labeled primer. Quantification of the single nucleotide extension product is one way to tell if DR change to in the enzyme led to any consequence. “P” indicates a radio labeled primer. “P+1” represents the elongated product by a single nucleotide or nucleotide analog. P+1 migrates slowly with the dye-dNTP conjugate. Note that the migration of Cy3.5 dCMP containing bands travel slowly on the gel compared to dCTP extended products. […] Essentially, incorporation is achieved at lower concentrations (less than 10 times) of dye-dNTP compared to that of the wild type polymerase. It is evident that the DR enzyme was able to incorporate Cy3.5 dCTP at concentrations as low as 0.2 uM (Cy3.5 dCTP) or even lower. […] In this experiment the template-primer is a mRNA annealed to radio labeled primer. Extension is monitored qualitatively as P+1 for the natural nucleotides and P+1* for dye labeled nucleotide. This is a promising first observation for potential use in microarray applications for cDNA probe labeling.

[2] = system: defined DNA template-DNA primer; assay: Single nucleotide incorporation of dye-dCTP during DNA dependent DNA synthesis (FIG. 13); conditions: lower concentrations (0.2 uM or lower) of dye-dCTP
Method: as §1
Primer extension was monitored using a defined DNA template-DNA primer.
In this experiment the relative efficiencies of incorporation of dye-CTP (Cy3.5-dCTP) was investigated. Three enzyme preparations were tested ΔTts, ΔTtsF412Y, and ΔTtsF412YD426R
Defined DNA shown below served as the template. A P-33 labeled primer (DNA 25 mer) was annealed to the template. Reactions were performed with varying concentrations of either Cy3.5-dCTP or dCTP alone. Inclusion of only one dNTP allowed incorporation of the next correct nucleotide alone. The sequence of the template-primer that allowed for the examination of single nucleotide “C” incorporation is shown below.
Lanes 1, 2, 3, 4 and 5 contain 20, 2, 0.2, 0.02 and 0 uM dye-dCTP. Lane 5 has no enzyme, to show the integrity of the starting p-33 labeled primer. Quantification of the single nucleotide extension product is one way to tell if DR change in the enzyme led to any consequence. “P” indicates a radio labeled primer. “P+1” represents the elongated product by a single nucleotide or nucleotide analog. P+1 migrates slowly with the dye-dNTP conjugate. Note that the migration of Cy3.5-dCTP containing band travel slowly on the gel compared to dCMP extended products. […] P+1 product is achieved between 10-100 fold less concentration of dye-dCTP with the enzyme having the DR change. Essentially, incorporation is achieved at a much lower concentration of dye-dNMP compared to the wild type enzyme. It is evident that the DR enzyme was able to incorporate Cy3.5-dCTP at concentrations as low as 0.2 uM or even lower.

Globin mRNA = assay: Direct RNA sequencing (FIG. 8); conditions: compared to retroviral reverse transcriptases
Text: Globin mRNA served as a template. The 50-mer DNA was used a primer. Standard sequencing components in Amersham Pharmacia Thermo Sequenase kit were employed for sequencing. P-33 labeled terminators (ddNTP) were obtained from Amersham Pharmacia Biotech. Post-sequencing reaction products were separated on 6% urea-polyacrylamide gels. AMV, Avian Myeloblastosis virus RT.

B1: D enzyme: 5′-3′ exonuclease deficient amino-terminally truncated Tts DNA polymerase I with unaltered aspartate at 426 (SEQ ID No. 3) (protein, listed as Thermoanaerobacter thermohydrosulfuricus)
chain: MYKFLIIDGSSLMYRAYYALPMLTTSEGLPTNALYGFTMMLIKLIEEEKPDYIAIAFDKKAPTFRHKEYQDYKATRQAMPEELAEQVDYLKEIIDGFNIKTLELEGYEADDIIGTISKLAEEKGMEVLVVTGDRDALQLVSDKVKIKISKKGITQMEEFDEKAILERYGITPQQFIDLKGLMGDKSDNIPGVPNIGEKTAIKLLKDFGTIENLIQNLSQLKGKIKENIENNKELAIMSKRLATIKRDIPIEIDFEEYKVKKFNEEKLLELFNKLEFFSLIDNIKKESSIEIVDNHKVEKWSKVDIKELVTLLQDNRNIAFYPLIYEGEIKKIAFSFGKDTVYIDVFQTEDLKEIFEKEDFEFTTHEIKDFLVRLSYKGIECKSKYIDTAVMAYLLNPSESNYDLDRVLKKYLKVDVPSYEGIFGKGRDKKKIEEIDENILADYICSRCVYLFDLKEKLMNFIEEMDMKKLLLEIEMPLVEVLKSMEVSGFTLDKEVLKELSQKIDDRIGEILDKIYKEAGYQFNVNSPKQLSEFLFEKLNLPVIKKTKTGYSTDSEVLEQLVPYNDIVSDIIEYRQLTKLKSTYIDGFLPLMDENNRVHSNFKQMVTATGRISSTEPNLQNIPIREEFGRQIRRAFIPRSRDGYIVSADYSQIELRVLAHVSGDEKLIESFMNNEDIHLRTASEVFKVPMEKVTPEMRRAAKAVNFGIIYGISDYGLSRDLKISRKEAKEYINNYFERYKGVKDYIEKIVRFAKENGYVTTIMNRRRYIPEINSRNFTQRSQAERLAMNAPIQGSAADIIKMAMVKVYNDLKKLKLKSKLILQVHDELVVDTYKDEVDIIKKILKENMENVVQLKVPLVVEIGVGPNWFLAK
[1]
  incorporation of Cy3.5-dCTP (qualitative, P+1 band): relatively poor incorporation
[2]
  incorporation of Cy3.5-dCTP (qualitative, P+1 band): relatively poor incorporation

B2: Tts F412Y: exonuclease deficient truncated Tts DNA polymerase I with F to Y change at position 412 (SEQ ID No. 5) (protein, listed as Thermoanaerobacter thermohydrosulfuricus)
chain: MYKFLIIDGSSLMYRAYYALPMLTTSEGLPTNALYGFTMMLIKLIEEEKPDYIAIAFDKKAPTFRHKEYQDYKATRQAMPEELAEQVDYLKEIIDGFNIKTLELEGYEADDIIGTISKLAEEKGMEVLVVTGDRDALQLVSDKVKIKISKKGITQMEEFDEKAILERYGITPQQFIDLKGLMGDKSDNIPGVPNIGEKTAIKLLKDFGTIENLIQNLSQLKGKIKENIENNKELAIMSKRLATIKRDIPIEIDFEEYKVKKFNEEKLLELFNKLEFFSLIDNIKKESSIEIVDNHKVEKWSKVDIKELVTLLQDNRNIAFYPLIYEGEIKKIAFSFGKDTVYIDVFQTEDLKEIFEKEDFEFTTHEIKDFLVRLSYKGIECKSKYIDTAVMAYLLNPSESNYDLDRVLKKYLKVDVPSYEGIFGKGRDKKKIEEIDENILADYICSRCVYLFDLKEKLMNFIEEMDMKKLLLEIEMPLVEVLKSMEVSGFTLDKEVLKELSQKIDDRIGEILDKIYKEAGYQFNVNSPKQLSEFLFEKLNLPVIKKTKTGYSTDSEVLEQLVPYNDIVSDIIEYRQLTKLKSTYIDGFLPLMDENNRVHSNFKQMVTATGRISSTEPNLQNIPIREEFGRQIRRAFIPRSRDGYIVSADYSQIELRVLAHVSGDEKLIESFMNNEDIHLRTASEVFKVPMEKVTPEMRRAAKAVNYGIIYGISDYGLSRDLKISRKEAKEYINNYFERYKGVKDYIEKIVRFAKENGYVTTIMNRRRYIPEINSRNFTQRSQAERLAMNAPIQGSAADIIKMAMVKVYNDLKKLKLKSKLILQVHDELVVDTYKDEVDIIKKILKENMENVVQLKVPLVVEIGVGPNWFLAK
Globin mRNA
  quality of sequence information from short stretches of RNA: excellent sequence information
[1]
  incorporation of Cy3.5-dCTP (qualitative, P+1 band): decreased incorporation
[2]
  incorporation of Cy3.5-dCTP (qualitative, P+1 band): decreased incorporation
